The values that follow come from patent US20250282881A1 (SHANGHAI EPIMAB BIOTHERAPEUTICS, published 2025).

Sequences and labels used below:
T1: recombinant human OX40/His fusion protein (Novoprotein, CB17) (human, UniProt P43489 29-216)
T1 construct: Bought protein
T1 sequence: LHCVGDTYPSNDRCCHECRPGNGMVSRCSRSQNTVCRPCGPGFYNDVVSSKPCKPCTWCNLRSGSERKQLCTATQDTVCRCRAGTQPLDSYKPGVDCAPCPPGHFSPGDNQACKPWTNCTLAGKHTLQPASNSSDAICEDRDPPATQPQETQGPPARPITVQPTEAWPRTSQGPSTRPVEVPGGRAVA

B1: HuEM1007-044-6 (antibody, human IgG1, kappa, L234A L235A, V domains shown)
VH: EVQLVQSGAEVKKPGSSVKVSCKASGHTFSSSWMNWVRQAPGQGLEWMGRIYPGDEITNYNGKFKDRVTITADKSTSTAYMELSSLRSEDTAVYYCARDLLMPYWGQGTLVTVSS
VL: DIVMTQTPLSLPVTPGEPASISCRSSKSLLYSNGITYLYWYLQKPGQSPQLLIYQMSNLAPGVPDRFSSSGSGTDFTLKISRVEAEDVGVYYCAQNLELPFTFGQGTKLEIKR
notes: Humanized anti-OX40, human IgG1 LALA / kappa
B2: EM1007-mAb044c-9 (antibody, human IgG1, kappa, L234A L235A, V domains shown)
VH: QVQLQQSGPELVKPGASVTISCKASGHAFSSSWMNWVKQRPGKGLEWIGRIYPGDEITNYNAKFKDKATLTADKSSSTAYMQLSSLTFEDSAVYFCARDLLMPYWGQGTLVTVSA
VL: DIVMTQTAFSNPVTLGTSASISCRSSKSLLYSNGITYLYWYLQKPGQSPHLLIYQMSNLAPGVPDRFSSSGSGTDFTLRISRVEAEDVGIYYCAQNLELPFTFGSGTKLEIKR
B3: EM1007-mAb044c-11 (antibody, human IgG1, kappa, L234A L235A, V domains shown)
VH: QVQLQQSGPELVKPGASVTISCKASGHAFSSSWMNWVKQRPGKGLEWIGRIYPGDEITNYNAKFKDKATLTADKSSSTAYMQLSSLTFEDSAVYFCARDLLMPYWGQGTLVTVSA
VL: DIVMTQTAFSNPVTLGTSASISCRSSKSLLYSNAITYLYWYLQKPGQSPHLLIYQMSNLAPGVPDRFSSSGSGTDFTLRISRVEAEDVGIYYCAQNLELPFTFGSGTKLEIKR
B4: HuEM1007-044-7 (antibody, human IgG1, kappa, L234A L235A, V domains shown)
VH: EVQLVQSGAEVKKPGSSVKVSCKASGHTFSSSWMNWVRQAPGQGLEWIGRIYPGDEITNYNGKFKDRVTLTADKSTSTAYMELSSLRSEDTAVYYCARDLLMPYWGQGTLVTVSS
VL: DIVMTQTPLSLPVTPGEPASISCRSSKSLLYSNGITYLYWYLQKPGQSPQLLIYQMSNLAPGVPDRFSSSGSGTDFTLKISRVEAEDVGVYYCAQNLELPFTFGQGTKLEIKR
notes: as for B1
B5: EM1007-mAb044c-12 (antibody, human IgG1, kappa, L234A L235A, V domains shown)
VH: QVQLQQSGPELVKPGASVTISCKASGHAFSSSWMNWVKQRPGKGLEWIGRIYPGDEITNYNGKFKDKATLTADKSSSTAYMQLSSLTFEDSAVYFCARDLLMPYWGQGTLVTVSA
VL: DIVMTQTPLSLPVTPGEPASISCRSSKSLLYSNGITYLYWYLQKPGQSPQLLIYQMSNLAPGVPDRFSGSGSGTDFTLKISRVEAEDVGVYYCAQNLELPFTFGQGTKLEIKR
B6: EM1007-mAb044c-10 (antibody, human IgG1, kappa, L234A L235A, V domains shown)
VH: QVQLQQSGPELVKPGASVTISCKASGHAFSSSWMNWVKQRPGKGLEWIGRIYPGDEITNYNGKFKDKATLTADKSSSTAYMQLSSLTFEDSAVYFCARDLLMPYWGQGTLVTVSA
VL: DIVMTQTAFSNPVTLGTSASISCRSSKSLLYSNAITYLYWYLQKPGQSPHLLIYQMSNLAPGVPDRFSSSGSGTDFTLRISRVEAEDVGIYYCAQNLELPFTFGSGTKLEIKR
B7: HuEM1007-044-8 (antibody, human IgG1, kappa, L234A L235A, V domains shown)
VH: EVQLVQSGAEVKKPGSSVKVSCKASGHTFSSSWMNWVKQAPGKGLEWIGRIYPGDEITNYNGKFKDKVTLTADKSTSTAYMELSSLRSEDTAVYYCARDLLMPYWGQGTLVTVSS
VL: DIVMTQTPLSLPVTPGEPASISCRSSKSLLYSNGITYLYWYLQKPGQSPQLLIYQMSNLAPGVPDRFSSSGSGTDFTLKISRVEAEDVGVYYCAQNLELPFTFGQGTKLEIKR
notes: as for B1

In one assay the target is T1, recombinant human OX40/His fusion …. The assay can be described thus: BLI (Octet RED96), antibody on AHC sensor, OX40/His as analyte, test group 1. On the procedure: (§1) All 17 antibodies in Table 4 were expressed by transient transfection of HEK293 cell, purified by Protein A chromatography, and assayed for and ranked by dissociation rate constant (koff). Briefly, antibodies binding affinities and kinetics were characterized by Octet® RED96 biolayer interferometry (Pall FortéBio LLC). Antibodies were captured by Anti-hIgG Fc Capture (AHC) Biosensors (Pall) at a concentration of 100 nM for 120 seconds. After that, sensors were dipped into running buffer (1× pH 7.2 PBS, 0.05% Tween 20, 0.1% BSA) for 60 seconds to check the baseline, then dipped into recombinant human OX40/His fusion protein (Novoprotein, CB17) at assigned concentration for 200 seconds to measure binding, followed by dipped into running buffer for 600 seconds for dissociation. The assay was conducted in four test groups (as listed in Table 5) all containing the EM1007-044c chimeric antibody as the basis for normalization. The association and dissociation curves were fitted to a 1:1 Langmuir binding model using ForteBio Data Analysis software (Pall) to obtain the off-rate constants as shown in Table 5 below. The off-rate of each antibody was compared to that of the EM1007-mAb044c chimeric antibody in the same test group obtained in parallel to produce the corresponding off-rate ratio, serving as a normalized index. […]
For orientation: Biolayer interferometry detects binding as a change in optical thickness at a sensor tip.
As usually defined, the koff is the first-order rate constant of dissociation. For B1, the “Normalized Index (off-rate ratio to EM1007-mAb044c)” value was found to be 331% and the koff is 0.00111 s⁻¹.

A further assay shares this target. The experiment in a line: BLI (Octet RED96), antibody on AHC sensor, OX40/His as analyte, test group 2. The method, then:
as §1
With B2, the “Normalized Index (off-rate ratio to EM1007-mAb044c)” value is 97% and the koff turned out to be 0.000309 s⁻¹.
For the molecule B3, the “Normalized Index (off-rate ratio to EM1007-mAb044c)” value was 100% and the koff is 0.000317 s⁻¹.
For the molecule B4, the “Normalized Index (off-rate ratio to EM1007-mAb044c)” value was determined as 343% and the off-rate constant (koff) came to 0.00109 s⁻¹.
For the molecule B5, the “Normalized Index (off-rate ratio to EM1007-mAb044c)” value is 255% and the koff was 0.00081 s⁻¹.
For B6, the “Normalized Index (off-rate ratio to EM1007-mAb044c)” value was found to be 94% and the koff came out at 0.000299 s⁻¹.
Consider B7, for which the “Normalized Index (off-rate ratio to EM1007-mAb044c)” value came out at 317% and the koff turned out to be 0.00101 s⁻¹.
